Source: the supplement of paper PMC7877785
± gives the uncertainty stated by the source.

Assay: self-splicing fitness, log relative to wild type (ln ratio); higher = more splicing; Tetrahymena group I intron in knt gene, E. coli kanamycin selection, DiMSum; sequences stand for … in CUCUCU…GGAGGGAAAAGUUAUCAGGCAUGCACCUGGUAGCUAGUCUUUAAACCAAUAGAUUGCAUCGGUUUAAAAGGCAAGACCGUCAAAUUGCGGGAAAGGGGUCAACAGCCGUUCAGUACCAAGUCUCAGGGGAAACUUUGAGAUGGCCUUGCAAAGGGUAUGGUAAUAAGCUGACGGACAUGGUCCUAACCACGCAGCCAAGUCCUAAGUCAACAGAUCUUCUGUUGAUAUGGAUGCAGUUCACAGACUAAAUGUCGGUCGGGGAAGAUGUAUUCUUCUCAUAAGAUAUAGUCGGACCUCUCCUUAAUGGGAGCUAGCGGAUGAAGUGAUGCAACACUGGAGCCGCUGGGAACUAAUUUGUAUGCGAAAGUAUAUUGAUUAGUUUUGGAGUACUCGUGGUCG
Outline: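 Colonies from six replicate transformations of E. coli BL21(DE3) were pooled and amplicon-sequenced on an Illumina HiSeq 2500. The library placed an intron with all eight P1ex-region nucleotides randomised inside the knt kanamycin-resistance gene on pET-22b(+), and cells grew overnight at 37°C or 30°C on LB agar with or without 25 μg/mL kanamycin (plus 100 μg/mL carbenicillin, 50 μM IPTG, 0.2% rhamnose). Fitness is the DiMSum error-weighted combination of wild-type-normalised replicate fold changes, kanamycin versus none.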

ACAGAGCAAUAUUACGUAAA
self-splicing fitness (ln) (30 °C): -3.71 ± 0.16
self-splicing fitness (ln) (37 °C): -2.09 ± 0.13

AUCGAGCAAUAUUACGUUUA
self-splicing fitness (ln) (30 °C): -2.49 ± 0.29
self-splicing fitness (ln) (37 °C): -2.26 ± 0.37

GGCGAGCAAUAUUACGACCA
self-splicing fitness (ln) (30 °C): -2.38 ± 0.39
self-splicing fitness (ln) (37 °C): -1.05 ± 0.42

GUCGAGCAAUAUUACGGCGA
self-splicing fitness (ln) (30 °C): -3.05 ± 0.21
self-splicing fitness (ln) (37 °C): -1.9 ± 0.25

GGGGAGCAAUAUUACGCUCA
self-splicing fitness (ln) (30 °C): -1.05 ± 0.15
self-splicing fitness (ln) (37 °C): -0.61 ± 0.21

AAUUAGCAAUAUUACGGCUU
self-splicing fitness (ln) (30 °C): -0.0634 ± 0.092
self-splicing fitness (ln) (37 °C): 0.169 ± 0.13

CCAAAGCAAUAUUACGAUAA
self-splicing fitness (ln) (30 °C): -3 ± 0.17
self-splicing fitness (ln) (37 °C): -0.828 ± 0.18

AAAGAGCAAUAUUACGCCUA
self-splicing fitness (ln) (30 °C): -2.22 ± 0.21
self-splicing fitness (ln) (37 °C): -1.81 ± 0.25

UUGAAGCAAUAUUACGCCCG
self-splicing fitness (ln) (30 °C): 0.0378 ± 0.14
self-splicing fitness (ln) (37 °C): 0.251 ± 0.21

GGCGAGCAAUAUUACGGAGC
self-splicing fitness (ln) (37 °C): -2.17 ± 0.37

AUCAAGCAAUAUUACGAUCG
self-splicing fitness (ln) (30 °C): -3.37 ± 0.2
self-splicing fitness (ln) (37 °C): -3.55 ± 0.28

CAGGAGCAAUAUUACGGAGG
self-splicing fitness (ln) (30 °C): -2.02 ± 0.095
self-splicing fitness (ln) (37 °C): -1.21 ± 0.12

CCUCAGCAAUAUUACGUUGG
self-splicing fitness (ln) (30 °C): -3.17 ± 0.13
self-splicing fitness (ln) (37 °C): -3.24 ± 0.21

CCGAAGCAAUAUUACGCAGC
self-splicing fitness (ln) (30 °C): -3.49 ± 0.23
self-splicing fitness (ln) (37 °C): -2.36 ± 0.37

UAACAGCAAUAUUACGGCAG
self-splicing fitness (ln) (30 °C): -0.752 ± 0.077
self-splicing fitness (ln) (37 °C): -0.814 ± 0.084

GCUUAGCAAUAUUACGCAGA
self-splicing fitness (ln) (30 °C): -2.62 ± 0.22
self-splicing fitness (ln) (37 °C): -3.24 ± 0.43

CUGGAGCAAUAUUACGCCGU
self-splicing fitness (ln) (30 °C): -2.44 ± 0.4
self-splicing fitness (ln) (37 °C): -1.06 ± 0.38

GGCAAGCAAUAUUACGACCA
self-splicing fitness (ln) (30 °C): -1.23 ± 0.12
self-splicing fitness (ln) (37 °C): -0.321 ± 0.13

AGCUAGCAAUAUUACGUCGG
self-splicing fitness (ln) (30 °C): -2.97 ± 0.3
self-splicing fitness (ln) (37 °C): -1.32 ± 0.26

GCGCAGCAAUAUUACGACGU
self-splicing fitness (ln) (30 °C): -1.69 ± 0.091
self-splicing fitness (ln) (37 °C): -1.13 ± 0.13

ACGAAGCAAUAUUACGAUCC
self-splicing fitness (ln) (30 °C): -1.12 ± 0.1
self-splicing fitness (ln) (37 °C): -0.136 ± 0.14

AUGGAGCAAUAUUACGUAAA
self-splicing fitness (ln) (30 °C): -3.85 ± 0.26
self-splicing fitness (ln) (37 °C): -2.09 ± 0.26

AACUAGCAAUAUUACGCAAU
self-splicing fitness (ln) (30 °C): -2.35 ± 0.13
self-splicing fitness (ln) (37 °C): -2.15 ± 0.16

CAAGAGCAAUAUUACGGGAG
self-splicing fitness (ln) (30 °C): -2.35 ± 0.11
self-splicing fitness (ln) (37 °C): -1.8 ± 0.12

GCACAGCAAUAUUACGGCAA
self-splicing fitness (ln) (30 °C): -1.31 ± 0.13
self-splicing fitness (ln) (37 °C): -0.887 ± 0.14

GAACAGCAAUAUUACGGGAA
self-splicing fitness (ln) (30 °C): -2.38 ± 0.2
self-splicing fitness (ln) (37 °C): 0.0433 ± 0.14

AGCAAGCAAUAUUACGCAGC
self-splicing fitness (ln) (30 °C): -2.98 ± 0.27
self-splicing fitness (ln) (37 °C): -2.1 ± 0.35

GCCCAGCAAUAUUACGAGGG
self-splicing fitness (ln) (30 °C): -4 ± 0.18
self-splicing fitness (ln) (37 °C): -2.74 ± 0.21

CAAAAGCAAUAUUACGGGCA
self-splicing fitness (ln) (30 °C): -2.88 ± 0.16
self-splicing fitness (ln) (37 °C): -1.99 ± 0.14

CAAUAGCAAUAUUACGAUGU
self-splicing fitness (ln) (30 °C): -3.19 ± 0.14
self-splicing fitness (ln) (37 °C): -2.32 ± 0.2

CUUGAGCAAUAUUACGGCUA
self-splicing fitness (ln) (37 °C): -1.11 ± 0.42

CCAAAGCAAUAUUACGCAAA
self-splicing fitness (ln) (30 °C): -3.41 ± 0.25
self-splicing fitness (ln) (37 °C): -1.72 ± 0.17

UUCGAGCAAUAUUACGAGCA
self-splicing fitness (ln) (30 °C): -1.41 ± 0.16
self-splicing fitness (ln) (37 °C): -0.946 ± 0.15

UCCAAGCAAUAUUACGCCAG
self-splicing fitness (ln) (37 °C): -1.9 ± 0.28

CAUGAGCAAUAUUACGUUGG
self-splicing fitness (ln) (30 °C): -2.69 ± 0.17
self-splicing fitness (ln) (37 °C): -1.81 ± 0.15

CUUCAGCAAUAUUACGCUCC
self-splicing fitness (ln) (30 °C): -2.61 ± 0.26

AUCUAGCAAUAUUACGAAUG
self-splicing fitness (ln) (30 °C): -2.37 ± 0.18
self-splicing fitness (ln) (37 °C): -0.667 ± 0.19

UCUUAGCAAUAUUACGGCGU
self-splicing fitness (ln) (30 °C): -0.535 ± 0.15
self-splicing fitness (ln) (37 °C): -1.19 ± 0.2

AGAAAGCAAUAUUACGACAC
self-splicing fitness (ln) (30 °C): -0.194 ± 0.11
self-splicing fitness (ln) (37 °C): -0.75 ± 0.13

GGCAAGCAAUAUUACGACAG
self-splicing fitness (ln) (30 °C): -3.74 ± 0.22
self-splicing fitness (ln) (37 °C): -2.63 ± 0.24

CGAGAGCAAUAUUACGAUGC
self-splicing fitness (ln) (37 °C): -1.63 ± 0.35

UCGAAGCAAUAUUACGCCUG
self-splicing fitness (ln) (30 °C): -0.508 ± 0.14
self-splicing fitness (ln) (37 °C): -0.022 ± 0.21

GAUGAGCAAUAUUACGCUUU
self-splicing fitness (ln) (30 °C): -3.32 ± 0.21
self-splicing fitness (ln) (37 °C): -3.79 ± 0.33

AGUUAGCAAUAUUACGAUUU
self-splicing fitness (ln) (30 °C): 0.0118 ± 0.094
self-splicing fitness (ln) (37 °C): 0.175 ± 0.11

UUCGAGCAAUAUUACGGACG
self-splicing fitness (ln) (30 °C): -1.8 ± 0.18
self-splicing fitness (ln) (37 °C): -1.42 ± 0.24

GAUUAGCAAUAUUACGUGUU
self-splicing fitness (ln) (30 °C): -2.85 ± 0.22
self-splicing fitness (ln) (37 °C): -1.66 ± 0.14

UCGCAGCAAUAUUACGUGCA
self-splicing fitness (ln) (30 °C): -2.17 ± 0.074
self-splicing fitness (ln) (37 °C): -0.836 ± 0.071

GAUAAGCAAUAUUACGUACG
self-splicing fitness (ln) (30 °C): -1.67 ± 0.1
self-splicing fitness (ln) (37 °C): -0.494 ± 0.11

AUCUAGCAAUAUUACGUCUA
self-splicing fitness (ln) (30 °C): -2.83 ± 0.25
self-splicing fitness (ln) (37 °C): -1.59 ± 0.21

ACGCAGCAAUAUUACGCAAG
self-splicing fitness (ln) (30 °C): -2.25 ± 0.081
self-splicing fitness (ln) (37 °C): -0.638 ± 0.091

CGCCAGCAAUAUUACGUCCC
self-splicing fitness (ln) (37 °C): -2.37 ± 0.49

UUCUAGCAAUAUUACGACAG
self-splicing fitness (ln) (30 °C): -1.13 ± 0.22
self-splicing fitness (ln) (37 °C): -1.59 ± 0.32

GGGGAGCAAUAUUACGACGC
self-splicing fitness (ln) (30 °C): -0.34 ± 0.15
self-splicing fitness (ln) (37 °C): 0.117 ± 0.2

CCGAAGCAAUAUUACGCGGU
self-splicing fitness (ln) (30 °C): -3.64 ± 0.22
self-splicing fitness (ln) (37 °C): -2.11 ± 0.2

CGCGAGCAAUAUUACGGUAC
self-splicing fitness (ln) (30 °C): -3.55 ± 0.22
self-splicing fitness (ln) (37 °C): -3.97 ± 0.42

UCAGAGCAAUAUUACGACAG
self-splicing fitness (ln) (30 °C): -2.53 ± 0.19
self-splicing fitness (ln) (37 °C): -2.92 ± 0.36

ACACAGCAAUAUUACGAGUG
self-splicing fitness (ln) (30 °C): -1.43 ± 0.041
self-splicing fitness (ln) (37 °C): -0.923 ± 0.057

GGCUAGCAAUAUUACGCGCA
self-splicing fitness (ln) (30 °C): 0.157 ± 0.096
self-splicing fitness (ln) (37 °C): -0.145 ± 0.13

UCUUAGCAAUAUUACGAUUA
self-splicing fitness (ln) (30 °C): -2.37 ± 0.24
self-splicing fitness (ln) (37 °C): -1.34 ± 0.2

ACUCAGCAAUAUUACGUUAA
self-splicing fitness (ln) (30 °C): -2.35 ± 0.13
self-splicing fitness (ln) (37 °C): -1.41 ± 0.12

UGAGAGCAAUAUUACGGUAA
self-splicing fitness (ln) (30 °C): -4.27 ± 0.25
self-splicing fitness (ln) (37 °C): -2.27 ± 0.23

GACCAGCAAUAUUACGCGGA
self-splicing fitness (ln) (30 °C): -1.06 ± 0.1
self-splicing fitness (ln) (37 °C): -0.442 ± 0.1

CGGUAGCAAUAUUACGGUGG
self-splicing fitness (ln) (30 °C): -0.519 ± 0.092
self-splicing fitness (ln) (37 °C): -0.124 ± 0.12

UGACAGCAAUAUUACGCGUC
self-splicing fitness (ln) (30 °C): -4.67 ± 0.38
self-splicing fitness (ln) (37 °C): -3.62 ± 0.27

CUUAAGCAAUAUUACGCUGA
self-splicing fitness (ln) (30 °C): -3.94 ± 0.39
self-splicing fitness (ln) (37 °C): -1.17 ± 0.25

CGAAAGCAAUAUUACGCGGG
self-splicing fitness (ln) (30 °C): -2.77 ± 0.18
self-splicing fitness (ln) (37 °C): -1.88 ± 0.19

AGCGAGCAAUAUUACGAGGA
self-splicing fitness (ln) (30 °C): -2.36 ± 0.15
self-splicing fitness (ln) (37 °C): -2.6 ± 0.22

AAUGAGCAAUAUUACGCGGU
self-splicing fitness (ln) (30 °C): -2.93 ± 0.17
self-splicing fitness (ln) (37 °C): -3.12 ± 0.32

CGCGAGCAAUAUUACGGAAA
self-splicing fitness (ln) (30 °C): -2.72 ± 0.26
self-splicing fitness (ln) (37 °C): -2.24 ± 0.3

GAAUAGCAAUAUUACGUUAG
self-splicing fitness (ln) (30 °C): -3.39 ± 0.2
self-splicing fitness (ln) (37 °C): -1.94 ± 0.18

CGUGAGCAAUAUUACGAGUA
self-splicing fitness (ln) (37 °C): -0.918 ± 0.47

CGCAAGCAAUAUUACGGGGA
self-splicing fitness (ln) (30 °C): -3.1 ± 0.2
self-splicing fitness (ln) (37 °C): -2.69 ± 0.23

CUUAAGCAAUAUUACGGAAC
self-splicing fitness (ln) (37 °C): -1.89 ± 0.3

AGUUAGCAAUAUUACGUGCU
self-splicing fitness (ln) (30 °C): -2.35 ± 0.14
self-splicing fitness (ln) (37 °C): -1.78 ± 0.21

AGCAAGCAAUAUUACGGUCC
self-splicing fitness (ln) (30 °C): -0.25 ± 0.07
self-splicing fitness (ln) (37 °C): -0.276 ± 0.081

CUUGAGCAAUAUUACGAUAG
self-splicing fitness (ln) (30 °C): -2.67 ± 0.18
self-splicing fitness (ln) (37 °C): -0.896 ± 0.2

UUUAAGCAAUAUUACGCAAA
self-splicing fitness (ln) (30 °C): -1.59 ± 0.38
self-splicing fitness (ln) (37 °C): -0.938 ± 0.28
